In patent publication US20240360208A1 (Hoffmann-La Roche, published 2024):
Blank lines part the entries; values can stand above or below the binder they belong to.

Assays:
[1] = biological target: T1, human CCL2 (MCP1) - wild type (wt) (human, UniProt P13500 24-99); assay: cell-based or functional assay
[2] = biological target: T1, human CCL2 (MCP1) - wild type (wt); assay: SPR T200, 37 C, antibody captured, 1:1 model
Experimental: (§1) Antibody clone supernatants were diluted 1:2 in system buffer and were captured for 1 min at 5 μl/min. […] Analyte kinetics were performed at 30 μl/min. As analyte in solution wt human CCL2 or monomeric CCL2 P8A variant CCL2 were used. Analytes were injected at 90 nM highest concentration. The analyte contact time was 3 min and the dissociation time was 10 min. The Biaevaluation software V.3.0 was used according to the instructions of the manufacturer GEHC. A 1:1 binding model with RMAX local was applied to apparently estimate kinetic rates.

[3] = biological target: T2, human CCL2 (MCP1) - P8A variant (human, UniProt P13500 24-99); assay: SPR T200, 37 C, antibody captured, 1:1 model
T2 construct: In-house point mutant that cannot dimerise; also called monomeric human CCL2; monomeric CCL2
Experimental: as §1

[4] = biological target: T3, human CCL7 (MCP3) - wild type (wt) (human, UniProt P80098 24-99); assay: SPR (Biacore T200), 25 °C, ACES pH 7.4; antibody captured on anti-human IgG (Fc), chemokine injected at 5 nM and 20 nM
T3 construct: Bought from R&D Systems for the homolog assay
Experimental: (§2) Biacore assay method: The binding of anti-CCL2 antibodies to the CCL homologs e.g. CCL2 (MCP-1), CCL8 (MCP-2), CCL7 (MCP-3), and CCL13 (MCP-4) were assessed at 25° C. using Biacore T200 instrument (GE Healthcare). Mouse anti-human IgG (Fc) (GE Healthcare) was immobilized on each flow cells of a CM4 sensor chip using amine coupling kit (GE Healthcare) according to the recommended settings by the manufacturer. Antibodies and analytes were diluted into ACES pH 7.4 buffer (20 mM ACES, 150 mM NaCl, 1 mg/ml BSA, 0.05% Tween 20, 0.005% NaN3). Antibodies were captured onto the anti-Fc sensor surfaces, then recombinant human CCL homologs proteins was injected over the flow cell at 5 nM and 20 nM. […] Sensor surface was regenerated each cycle with 3M MgCl2. Binding sensorgram was processed using Biacore T200 Evaluation software, version 2.0 (GE Healthcare).

[5] = biological target: T4, human CCL8 (MCP2) - wild type (wt) (human, UniProt P80075 24-99); assay: as above
T4 construct: also called huCCL8
T4 sequence: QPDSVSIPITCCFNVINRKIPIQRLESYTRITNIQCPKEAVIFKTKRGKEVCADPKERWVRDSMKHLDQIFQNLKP
Experimental: as §2

[6] = biological target: T2, human CCL2 (MCP1) - P8A variant; assay: number printed over the column of sensorgrams; the assay and the CCL2 form behind the number are not stated on the sheet (the sensorgrams are on monomeric CCL2)
[7] = biological target: T2, human CCL2 (MCP1) - P8A variant; assay: number printed beside the row of sensorgrams; the assay and the CCL2 form behind the number are not stated on the sheet (the sensorgrams are on monomeric CCL2)
[8] = biological target: T1, human CCL2 (MCP1) - wild type (wt); assay: cell-based or functional assay; remark: listed apart in the source
[9] = biological target: T5, human FcγRIIb receptor on CHO-K1 cells (clone 223) (human, UniProt P31994 43-310); assay: cell-based or functional assay
T5 sequence (looked up): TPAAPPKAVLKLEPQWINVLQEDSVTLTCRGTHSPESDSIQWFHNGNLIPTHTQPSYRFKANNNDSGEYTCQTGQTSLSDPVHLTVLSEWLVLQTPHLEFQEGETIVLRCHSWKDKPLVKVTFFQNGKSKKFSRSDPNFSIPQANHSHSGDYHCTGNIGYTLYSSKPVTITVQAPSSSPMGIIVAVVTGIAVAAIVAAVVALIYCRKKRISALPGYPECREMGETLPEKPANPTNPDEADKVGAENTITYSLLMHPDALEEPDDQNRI

B1: 1A5 (antibody, IgG1, V domains shown)
VH: QEQLVESGGDLVKPEGSLTLTCTASGFSFSTSYWMCWVRQAPGKGLELIACISSSIGVTYYASWAEGRFTISKTSSTTVTLQMTSLTVADTATYFCARTTDDNWNVGFNLWGPGTLVTVSS
VL: AYDMTQTPASVEVGVGGTVTIKCQASQSIGNRYLSWYQQKPGQPPKLLIYGTSTLASGVSSRFKGSGSGTQFTLTISGVESADSATYYCQQGATISYLDNAFGGGTEVVVK
notes: also called CCL2-0009
- THP1 chemotaxis [fold change compared to IgG control] [1]: 3.6 fold
- Kd [2]: 24 pM
- T1/2 [2]: 2.67 h
- Kd [3]: 46 pM
- T1/2 [3]: 2.28 h
- binding result [4]: binds
- binding result [5]: no binding (tested: 20 nM)

B2: 11K2H1503/11K2L1338 (antibody, V domains shown)
VH: QVQLVQSGAEVKKPGSSVKVSCKASGLTISHTYMHWVRQAPGQGLEWMGRIDPDNHNTKFDPKFQGRVTITADTSTSTAYMELSSLRSEDTAVYYCARGVFGFFDHWGQGTTVTVSS
VL: DIQMTQSPSSLSASVGDRVTITCKAFEDIYNRRAWYQQKPGKAPKLLIHGATSLEHGVPSRFSGSGSGTDYTLTISSLQPEDFATYYCQQFWSAPYTFGGGTKVEIK
notes: also called modified 11K2 variant (VH H1503 / VL L1338)
- Affinity relative to parent 11K2 [6]: 0.2

B3: 11K2H1514/11K2L1338 (antibody, V domains shown)
VH: QVQLVQSGAEVKKPGSSVKVSCKASGLTISHTYMHWVRQAPGQGLEWMGRIDPENHNTKFDPKFQGRVTITADTSTSTAYMELSSLRSEDTAVYYCARGVFGFFEHWGQGTTVTVSS
VL: DIQMTQSPSSLSASVGDRVTITCKAFEDIYNRRAWYQQKPGKAPKLLIHGATSLEHGVPSRFSGSGSGTDYTLTISSLQPEDFATYYCQQFWSAPYTFGGGTKVEIK
notes: also called modified 11K2 variant (VH H1514 / VL L1338)
- Affinity relative to parent 11K2 [6]: 0.02

B4: 11K2H1503/11K2L1201 (antibody, V domains shown)
VH: QVQLVQSGAEVKKPGSSVKVSCKASGLTISHTYMHWVRQAPGQGLEWMGRIDPDNHNTKFDPKFQGRVTITADTSTSTAYMELSSLRSEDTAVYYCARGVFGFFDHWGQGTTVTVSS
VL: DIQMTQSPSSLSASVGDRVTITCKATEDIYNRLAWYQQKPGKAPKLLIHGATSLEHGVPSRFSGSGSGTDYTLTISSLQPEDFATYYCQQFRSAPYTFGGGTKVEIK
notes: also called modified 11K2 variant (VH H1503 / VL L1201)
- Affinity relative to parent 11K2 [6]: 0.05

B5: 11K2H1510/11K2L1338 (antibody, V domains shown)
VH: QVQLVQSGAEVKKPGSSVKVSCKASGLTISHTYMHWVRQAPGQGLEWMGRIDPDNHNTKFDPKFQGRVTITADTSTSTAYMELSSLRSEDTAVYYCARGVFGFFEHWGQGTTVTVSS
VL: DIQMTQSPSSLSASVGDRVTITCKAFEDIYNRRAWYQQKPGKAPKLLIHGATSLEHGVPSRFSGSGSGTDYTLTISSLQPEDFATYYCQQFWSAPYTFGGGTKVEIK
notes: also called modified 11K2 variant (VH H1510 / VL L1338)
- Affinity relative to parent 11K2 [6]: < 0.01

B6: CNTO888H0625/CNTO888L0616 (antibody, V domains shown)
VH: QVQLVQSGAEVKKPGSSVKVSCKASGGTFSHYGISWVRQAPGQGLEWMGGIIHIFHTANYAQKFQGRVTITADESTSTAYMELSSLRSEDTAVYYCARYDAHYGELDFWGQGTLVTVSS
VL: EIVLTQSPATLSLSPGERATLSCRASQHVSDAYLAWYQQKPGQAPRLLIYDASDRAEGVPARFSGSGSGTDFTLTISSLEPEDFAVYYCHQYIHLHSFTFGQGTKVEIK
notes: also called modified CNTO888 variant (VH H0625 / VL L0616)
- Affinity relative to parent CNTO888 [7]: 3 X

B11: 1G9 (antibody, IgG1, V domains shown)
VH: QSLEESGGDLVKPGASLTLTCKASGIDFSLYSYMCWVRQAPGKGLEWIACVDAGASGSTYYASWAKGRFTISKTSSTTVTLQMTSLTAADTATYFCARGILYYTWPYPAGAIDAFDSWGPGTLVTVSS
VL: AYDMTQTPASVSEPVGGTVTIKCQASESISNYLSWYQQKPGQPPKLLIYKASTLASGVPSRFKGSGSGTEYTVTISGVQSDDAATYYCQQSYSSSNVFNTFGGGTEVVVK
notes: also called CCL2-0010
- THP1 chemotaxis [fold change compared to IgG control] [1]: 0.9 fold
- Kd [2]: 62 pM
- T1/2 [2]: 2.95 h
- Kd [3]: 51 pM
- T1/2 [3]: 3.63 h
- binding result [4]: no binding (tested: 20 nM)
- binding result [5]: binds

B12: CKLO2-SG1095 (=P1AD8325) (bispecific antibody)
heavy 1: DIQMTQSPSSLSASVGDRVTITCKAFEDIYNRRAWYQQKPGKAPKLLIHGATSLEHGVPSRFSGSGSGTDYTLTISSLQPEDFATYYCQQFWSAPYTFGGGTKVEIKSSASTKGPSVFPLAPSSKSTSGGTAALGCLVKDYFPEPVTVSWNSGALTSGVHTFPAVLQSSGLYSLSSVVTVPSSSLGTQTYICNVNHKPSNTKVDKKVEPKSCDKTHTCPPCPAPELWNGPSVFLFPPKPKDTLMISRTPEVTCVVVDVSDEDPEVKFNWYVDGVEVHNAKTKPREELYNSTYRVVSVLTVLHRDWLNGKEYKCKVSNTALPKPIEKTISKAKGQRREPQVYTLPPCRDELTKNQVSLWCLVKGFYPSDIAVEWESNGQPENNYKTTPPVLDSDGSFFLYSKLTVDKSRWQQGNVFSCSVMHEALHAHYTRKELSLSP
heavy 2: not shown
light 1: QVQLVQSGAEVKKPGSSVKVSCKASGLTISHTYMHWVRQAPGQGLEWMGRIDPDNHNTKFDPKFQGRVTITADTSTSTAYMELSSLRSEDTAVYYCARGVFGFFEHWGQGTTVTVSSASVAAPSVFIFPPSDEQLKSGTASVVCLLNNFYPREAKVQWKVDNALQSGNSQESVTEQDSKDSTYSLSSTLTLSKADYEKHKVYACEVTHQGLSSPVTKSFNRGEC
light 2: EIVLTQSPATLSLSPGERATLSCRASQHVSDAYLAWYQQKPGQAPRLLIYDASDRAEGVPARFSGSGSGTDFTLTISSLEPEDFAVYYCHQYIHLHSFTFGQGTKVEIKRTVAAPSVFIFPPSDRKLKSGTASVVCLLNNFYPREAKVQWKVDNALQSGNSQESVTEQDSKDSTYSLSSTLTLSKADYEKHKVYACEVTHQGLSSPVTKSFNRGEC
- IC50, inhibition of THP-1 migration (chemotaxis assay) [8]: 0.2 µg/mL
- Depletion level max (%) of CCL2 from the supernatant [9]: 85%
- EC50 [nM] of CCL2 depletion [9]: 0.5 nM

Other lines, results leading:

- binding result [4]: no binding (tested: 20 nM)
B7: CNTO888 (antibody, V domains shown)
VH: QVQLVQSGAEVKKPGSSVKVSCKASGGTFSSYGISWVRQAPGQGLEWMGGIIPIFGTANYAQKFQGRVTITADESTSTAYMELSSLRSEDTAVYYCARYDGIYGELDFWGQGTLVTVSS
VL: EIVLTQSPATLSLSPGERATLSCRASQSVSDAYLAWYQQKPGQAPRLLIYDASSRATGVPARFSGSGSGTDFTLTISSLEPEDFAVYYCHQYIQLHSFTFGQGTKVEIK
notes: IgG1 wild type with kappa light chain; also called CCL2-0004; CNTO888-IgG1

- Affinity relative to parent CNTO888 [7]: 3 X
B8: CNTO888H0635/CNTO888L0616 (antibody, V domains shown)
VH: QVQLVQSGAEVKKPGSSVKVSCKASGGTFSHYGISWVRQAPGQGLEWMGGHIHIFGTANYAQKFQGRVTITADESTSTAYMELSSLRSEDTAVYYCARYDAHYGELDFWGQGTLVTVSS
VL: EIVLTQSPATLSLSPGERATLSCRASQHVSDAYLAWYQQKPGQAPRLLIYDASDRAEGVPARFSGSGSGTDFTLTISSLEPEDFAVYYCHQYIHLHSFTFGQGTKVEIK
notes: also called modified CNTO888 variant (VH H0635 / VL L0616)

- Affinity relative to parent CNTO888 [7]: 10 X
B9: CNTO888H0634/CNTO888L0616 (antibody, V domains shown)
VH: QVQLVQSGAEVKKPGSSVKVSCKASGGTFSHYGTSWVRQAPGQGLEWMGGIIHIFGTANYAQKFQGRVTITADESTSTAYMELSSLRSEDTAVYYCARYDAHYGELDFWGQGTLVTVSS
VL: EIVLTQSPATLSLSPGERATLSCRASQHVSDAYLAWYQQKPGQAPRLLIYDASDRAEGVPARFSGSGSGTDFTLTISSLEPEDFAVYYCHQYIHLHSFTFGQGTKVEIK
notes: also called modified CNTO888 variant (VH H0634 / VL L0616)

- Affinity relative to parent CNTO888 [7]: 1 X
B10: CNTO888H0695/CNTO888L0616 (antibody, V domains shown)
VH: QVQLVQSGAEVKKPGSSVKVSCKASGGTFSHYGISWVRQAPGQGLEWMGGVIPIFHTANYAQKFQGRVTITADESTSTAYMELSSLRSEDTAVYYCARYDAHYGELDFWGQGTLVTVSS
VL: EIVLTQSPATLSLSPGERATLSCRASQHVSDAYLAWYQQKPGQAPRLLIYDASDRAEGVPARFSGSGSGTDFTLTISSLEPEDFAVYYCHQYIHLHSFTFGQGTKVEIK
notes: also called modified CNTO888 variant (VH H0695 / VL L0616)
